Data: US20240252670A1 (TSINGHUA UNIVERSITY, published 2024)

Molecular target: T1, PD-L1 on the surface of murine cells (MC38, B16, wild-type DC 2.4) (murine, UniProt Q9EP73 19-290)
T1 construct: whole, on cells; also called PD-L1 antigen; Cd274 gene product
Test: FACS on MC38 cells, FITC-labeled goat anti-human secondary antibody
Source text: A. The histograms of different colors represent, from top to bottom, the fluorescence signals measured for the negative control (NC) group, the secondary antibody group, the anti-PD-L1 antibody group, the anti-PD-L1 THIOMAB group, and the ADC HE-S2 group, respectively. B. Mean fluorescence intensity (MFI) measured after treatment with different antibody-based drugs on MC38. NC group: the negative control only added with the isotype antibody, with no secondary antibody added for staining; secondary antibody group: the control group added with the isotype antibody and stained with fluorescent secondary antibody. Student's t test was used to compare significant differences between the groups, and p<0.0001 is represented by ****.
With PD-L1 positive MC38 as a platform, the inventors verified whether ADC HE-S2 and the gene-modified anti-PD-L1 THIOMAB retained the original antibody-antigen binding capacity by using a fluorescence activated cell sorting (FACS) technique. In the experiment, ADC HE-S2, anti-PD-L1 antibody (i.e., avelumab as described in Example 2) and anti-PD-L1 THIOMAB (i.e., mutant antibody prepared in Example 2) serving as primary antibodies were incubated with MC38 cells, such that the antibodies could be sufficiently contacted and bind to PD-L1 on the cell surfaces. After washing with PBS, the cells were treated with an FITC-labeled goat anti-human secondary antibody, and incubated in the dark for 30 min to allow the secondary antibody to bind fully to the primary antibodies. Simultaneously, two groups of negative controls were set, wherein one group was marked as a negative control (NC), only isotype control IgG was added to treat the cells, no staining was carried out, and the fluorescent background of the cells was represented; the other group was marked as a secondary antibody, and after addition of isotype control IgG, the secondary antibody was stained with FITC-labeled secondary antibody along with other experimental groups to characterize false positive fluorescence signals generated by non-specific binding of secondary antibodies to the cells. The stained MC38 cells were analyzed on a BD FACSAria™ III flow cytometer, and the strength of FITC fluorescence signals on MC38 cells treated with different antibody-based drugs was detected and compared, so as to characterize the affinity of ADC, THIOMAB and antibodies to PD-L1.

T1 sequence (Q9EP73 19-290): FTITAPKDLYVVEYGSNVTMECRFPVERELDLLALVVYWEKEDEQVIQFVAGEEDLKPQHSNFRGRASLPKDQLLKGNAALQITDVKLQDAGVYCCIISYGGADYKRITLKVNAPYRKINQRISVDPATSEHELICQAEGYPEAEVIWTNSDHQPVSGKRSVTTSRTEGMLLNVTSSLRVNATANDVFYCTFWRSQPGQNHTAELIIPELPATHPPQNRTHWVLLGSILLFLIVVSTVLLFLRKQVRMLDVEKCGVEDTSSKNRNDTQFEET

MFI	shift rate of the FITC positive signal relative to the NC group [%]	Binder
449	36.6	anti-PD-L1 THIOMAB (avelumab with light chain V205C) (antibody, human IgG1, lambda, engineered cysteine (V205C; Cys 226 of SEQ ID NO: 9) generally capped with a free cysteine in the intact THIOMAB as expressed, also called αPD-L1 THIOMAB LC-V205C) heavy: not shown light: QSALTQPASVSGSPGQSITISCTGTSSDVGGYNYVSWYQQHPGKAPKLMIYDVSNRPSGVSNRFSGSKSGNTASLTISGLQAEDEADYYCSSYTSSSTRVFGTGTKVTVLGQPKANPTVTLFPPSSEELQANKATLVCLISDFYPGAVTVAWKADGSPVKAGVETTKPSKQSNNKYAASSYLSLTPEQWKSHRSYSCQVTHEGSTCEKTVAPTECS
445	35.7	anti-PD-L1 antibody avelumab (antibody, human IgG1, lambda, also called MSB0010718C; Bavencio) heavy: not shown light: QSALTQPASVSGSPGQSITISCTGTSSDVGGYNYVSWYQQHPGKAPKLMIYDVSNRPSGVSNRFSGSKSGNTASLTISGLQAEDEADYYCSSYTSSSTRVFGTGTKVTVLGQPKANPTVTLFPPSSEELQANKATLVCLISDFYPGAVTVAWKADGSPVKAGVETTKPSKQSNNKYAASSYLSLTPEQWKSHRSYSCQVTHEGSTVEKTVAPTECS
